T1: SLM2 (T-STAR) STAR domain (UniProt O75525 1-183)
T1 sequence: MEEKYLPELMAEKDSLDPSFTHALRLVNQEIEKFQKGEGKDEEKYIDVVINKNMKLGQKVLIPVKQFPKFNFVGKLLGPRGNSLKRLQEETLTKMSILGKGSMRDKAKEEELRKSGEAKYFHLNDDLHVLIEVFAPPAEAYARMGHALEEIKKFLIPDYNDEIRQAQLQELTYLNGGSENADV


Columns and labels:
[1] = target: Sam68 STAR domain (UniProt Q07666 97-283); test: fluorescence polarization; FP buffer, salt, pH and temperature not given in the material; SD from three independent experiments; conditions: protein: recombinant; chain copies: 2; label: 5' fluorescein
[2] = target: T1, SLM2 (T-STAR) STAR domain; test: as above; conditions: protein: recombinant; chain copies: 2; label: 5' fluorescein

Sequence of Sam68 STAR domain (Q07666 97-283): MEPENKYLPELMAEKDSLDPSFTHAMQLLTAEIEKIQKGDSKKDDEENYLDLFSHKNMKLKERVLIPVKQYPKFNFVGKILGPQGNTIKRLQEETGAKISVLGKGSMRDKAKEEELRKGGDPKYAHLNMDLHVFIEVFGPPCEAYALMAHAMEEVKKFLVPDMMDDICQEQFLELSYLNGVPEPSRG

| Binder | Kd [1] | Kd [2] |
| --- | --- | --- |
| Nrxn2 WT (ssRNA) RNA: CCCAAUUAAUUAAUUAAUUAACUAACUAACUAACUUUAAAAACACGAUCUUAAA | 2.9 ± 0.3 µM | 5.9 ± 0.9 µM |
| Nrxn2 mutant 7 (ssRNA) RNA: CCCAAUUAAUUAAUUAAUUAACUAACCCACCCACCCUAAAAACACGAUCUUAAA | 3.4 ± 0.3 µM | 3.9 ± 0.4 µM |
